Key:
[1] = target: T1, Mouse GFRAL protein (Biacore analyte) (mouse, UniProt Q6SJE0 20-349, limits assumed); assay: Biacore SPR, antibody captured via anti-human Fc on CM5, GFRAL injected, 25 C
T1 construct: also called mGFRAL
T1 sequence (looked up): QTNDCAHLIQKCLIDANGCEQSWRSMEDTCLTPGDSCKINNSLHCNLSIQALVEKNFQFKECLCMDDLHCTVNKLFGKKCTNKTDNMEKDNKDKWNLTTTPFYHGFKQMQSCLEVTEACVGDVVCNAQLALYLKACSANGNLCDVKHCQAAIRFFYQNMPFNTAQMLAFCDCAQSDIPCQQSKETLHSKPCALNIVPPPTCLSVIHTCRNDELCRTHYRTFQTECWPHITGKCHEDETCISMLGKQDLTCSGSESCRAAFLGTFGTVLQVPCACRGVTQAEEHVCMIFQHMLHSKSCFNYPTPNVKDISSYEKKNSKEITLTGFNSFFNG
Description: (§1) Binding affinity assays were performed for three antibody strains 168A7, 8E10 and 26D7 based on the Biacore affinity assay. The binding affinities of purified antibodies to human or mouse GFRAL were assessed by measuring the equilibrium dissociation constants (KD). The anti-human Fc antibody was immobilized in the flow cell of the CM5 chip according to the instructions of the amino-coupled kit (catalogue number: BR100050, Cytiva). Purified antibodies (˜300 RU) were captured on flow cells 2, 3 and 4 using flow cell 1 as a reference. Human or mouse GFRAL protein (in an HBS-EP buffer) was then injected at a flow rate of 30 μL/min and the binding kinetics were evaluated at 25° C. The results were as follows (FIGS. 1A-1C, Table 4)

[2] = target: T2, Human GFRAL protein (Biacore analyte) (human, UniProt Q6UXV0 19-351, limits assumed); assay: as above
T2 construct: also called hGFRAL
T2 sequence (looked up): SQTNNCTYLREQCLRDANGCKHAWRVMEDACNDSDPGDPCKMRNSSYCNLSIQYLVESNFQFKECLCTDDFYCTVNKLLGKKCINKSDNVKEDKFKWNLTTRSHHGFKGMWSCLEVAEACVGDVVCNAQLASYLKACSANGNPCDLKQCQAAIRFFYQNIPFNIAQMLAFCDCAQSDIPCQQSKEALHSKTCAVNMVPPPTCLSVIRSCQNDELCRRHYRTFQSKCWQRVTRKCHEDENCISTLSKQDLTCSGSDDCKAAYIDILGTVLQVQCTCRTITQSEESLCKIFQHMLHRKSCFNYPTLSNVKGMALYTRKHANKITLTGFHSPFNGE
Description: as §1

[3] = target: T3, Human GFRAL (hGFRAL) on HEK293 reporter cells with human RET (human, UniProt Q6UXV0 19-394); assay: cell-based or functional assay
T3 sequence (looked up): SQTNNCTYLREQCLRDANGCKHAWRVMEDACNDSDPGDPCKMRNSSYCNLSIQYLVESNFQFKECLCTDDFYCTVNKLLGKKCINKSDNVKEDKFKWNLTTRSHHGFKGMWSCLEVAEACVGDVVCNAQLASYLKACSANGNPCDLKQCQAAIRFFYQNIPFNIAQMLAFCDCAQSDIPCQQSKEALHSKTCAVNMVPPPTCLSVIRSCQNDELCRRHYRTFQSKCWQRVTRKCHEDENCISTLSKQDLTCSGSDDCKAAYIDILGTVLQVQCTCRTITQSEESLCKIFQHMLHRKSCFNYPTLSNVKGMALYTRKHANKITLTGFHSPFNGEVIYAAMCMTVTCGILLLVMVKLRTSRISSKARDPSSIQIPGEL

[4] = target: T4, Mouse GFRAL (mGFRAL) on HEK293 reporter cells with mouse RET (mouse, UniProt Q6SJE0 20-393); assay: cell-based or functional assay
T4 sequence (looked up): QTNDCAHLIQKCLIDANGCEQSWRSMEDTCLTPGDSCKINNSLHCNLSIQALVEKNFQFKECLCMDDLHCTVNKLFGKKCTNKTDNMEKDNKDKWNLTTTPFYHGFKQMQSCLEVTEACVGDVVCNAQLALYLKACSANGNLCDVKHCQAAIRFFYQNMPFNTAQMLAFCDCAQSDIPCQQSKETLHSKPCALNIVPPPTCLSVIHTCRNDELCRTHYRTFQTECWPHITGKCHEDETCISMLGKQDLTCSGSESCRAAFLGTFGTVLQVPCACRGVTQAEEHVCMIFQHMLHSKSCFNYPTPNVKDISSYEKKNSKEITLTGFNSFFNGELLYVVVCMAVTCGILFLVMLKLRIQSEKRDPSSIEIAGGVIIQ

[5] = target: T5, Human GFRAL-His protein (human, UniProt Q6UXV0 19-351); assay: ELISA, antigen coated on plate, purified antibody titrated, HRP anti-mouse IgG detection
T5 construct: also called human GFRAL-His fusion protein; not shown: His tag
T5 sequence (looked up): T2 sequence (looked up)
Description: (§2) The ELISA assay had the following protocols. Human GFRAL-His protein, cynomolgus monkey GFRAL-His protein, or mouse GFRAL-Fc protein were coated on 96-well plates, and after blocking the wells with PBS/1% BSA solution, the hybridoma supernatant or purified antibodies were added to the reaction wells. After incubation for 1 hour at room temperature, HRP-labeled anti-mouse IgG (Fab region) antibody was added to the reaction wells to incubate for an additional hour at room temperature. After the substrate and stop solution were added successively, the OD₄₅₀ values were read. The OD₄₅₀ values were used to verify and assess the binding ability of the antibodies to the GFRAL proteins.

[6] = target: Cynomolgus monkey GFRAL-His protein (cynomolgus monkey); assay: as above
Description: as §2

[7] = target: T6, Mouse GFRAL-Fc protein (mouse, UniProt Q6SJE0 20-349, limits assumed); assay: as above
T6 construct: not shown: Fc
T6 sequence (looked up): T1 sequence (looked up)
Description: as §2

B1: 26D7 (antibody, V domains shown)
VH: QIQLVQSGPELKKPGETVKISCKVSGYTFTDYGMNWVKQTPGKDLKWVGWINTYTGEPTYADDFKDRFAFSLEASASTAYLQINNLKNEDTATYFCARRYGYDAGIDCWGQGTTLTVSS
VL: NIVLTQSPPSLAVSLGQRATISCRASESVDSYGNNLMHWYQQKPGQPPKLLIYLASYLESGVPARFSGSGSRTDFTLTIDPVEADDAATYYCQQNNEDPWTFGGGTKLEIK
notes: Murine hybridoma antibody, purified; also called m26D7; M26D7
- koff [1]: 0.000293 s⁻¹
- Kd [2]: 0.0153 nM
- koff [2]: 9.37e-05 s⁻¹
- IC50 (nM), luciferase reporter gene assay, Human GFRAL/human RET [3]: 6.35 nM
- IC50 (nM), luciferase reporter gene assay, Mouse GFRAL/mouse RET [4]: 0.76 nM
- EC50 [5]: 0.07 nM
- EC50 [6]: 0.06 nM
- EC50 [7]: 0.15 nM
